Results as given in patent US11524046B2, “Biofilm prevention, disruption and treatment with bacteriophage lysin” (priority 2012, dated 2022).

What was measured:
[1] = test system: Streptococcus pyogenes, Group A; test: MIC of PlySs2, susceptible and non-susceptible bacterial strains; assay type: cell-based; settings: Group A (54)
[2] = test system: Streptococcus agalactiae, Group B; test: as above; assay type: cell-based; settings: Group B (51)
[3] = test system: Staphylococcus lugdiensis; test: as above; assay type: cell-based; settings: Staphylococcus lugdiensis (10)
[4] = test system: Staphylococcus epidermidis; test: as above; assay type: cell-based; settings: Staphylococcus epidermidis (11)
S. aureus strains = test: PlySs2 and antibiotic MIC, broth microdilution, 80% growth inhibition (CLSI M07-A9); assay type: cell-based
staphylococci = test: PlySs2 stability at 37° C. in Lactated Ringer's solution, residual lytic activity; assay type: physicochemical; settings: 1X MIC
Protocol: To determine the stability of PlySs2 in a simulated catheter setting, PlySs2 was incubated at various concentrations in Lactated Ringer's solution at 37° C. After 7 days, the lytic activity of PlySs2 was assessed by adding 1×10^5 staphylococci, incubating for 4 hours, then treating with proteinase K to remove residual PlySs2, and serial dilution and plating for viability. The resulting CFU value for each condition was divided by 1×10^5 to determine the % Loss of Activity.

[5] = test system: MRSA strains CFS 553 (ATCC 43300) and CFS 992 (JMI 5381) biofilms; test: Catheter biofilm titration of additional MRSA strains, methylene blue staining; assay type: cell-based, S. aureus; settings: 4 hours
Acinetobacter baumannii = Acinetobacter baumannii (8)
Escherichia coli = Escherichia coli (6)
Lactobacillus spp. = settings: N 6
Lactococcus spp. = settings: N 3

B1: PlySs2: bacteriophage lysin derived from Streptococcus suis, amino acid sequence of FIG. 5 / SEQ ID NO: 1; CHAP and SH3 domains (protein, listed as Streptococcus suis)
chain: MTTVNEALNNVRAQVGSGVSVGNGECYALASWYERMISPDATVGLGAGVGWVSGAIGDTISAKNIGSSYNWQANGWTVSTSGPFKAGQIVTLGATPGNPYGHVVIVEAVDGDRLTILEQNYGGKRYPVRNYYSAASYRQQVVHYITPPGTVAQSAPNLAGSRSYRETGTMTVTVDALNVRRAPNTSGEIVAVYKRGESFDYDTVIIDVNGYVWVSYIGGSGKRNYVATGATKDGKRFGNAWGTFK
MIC 50% [1]: 2 µg/mL
MIC 90% [1]: 8 µg/mL
MIC Range [1]: 0.5 to 8 µg/mL
MIC 50% [2]: 8 µg/mL
MIC 90% [2]: 16 µg/mL
MIC Range [2]: 1 to 64 µg/mL
MIC 50% [3]: 8 µg/mL
MIC 90% [3]: 8 µg/mL
MIC Range [3]: 8 µg/mL
MIC 50% [4]: 128 µg/mL
MIC 90% [4]: 512 µg/mL
MIC Range [4]: 4 to 512 µg/mL
MIC90 (S. aureus strains; DRSA (n = 8)): 0.15 µM
MIC90 (S. aureus strains; LRSA (n = 5)): 0.08 µM
MIC90 (S. aureus strains; MRSA (n = 45)): 0.15 µM
MIC90 (S. aureus strains; MSSA (n-28)): 0.15 µM
MIC90 (S. aureus strains; VISA (n = 10)): 1.2 µM
MIC90 (S. aureus strains; VRSA (n = 14)): 0.08 µM
% LOSS OF ACTIVITY (7 days) (staphylococci): 58.3%
catheter biofilm eradication ([5]; CFS 553 (ATCC 43300), 0.01×MIC): significantly reduced
catheter biofilm eradication ([5]; CFS 553 (ATCC 43300), 10×MIC, 1×MIC, and 0.1×MIC): eradicated and fully dispersed
catheter biofilm eradication ([5]; CFS 992 (JMI 5381), 0.01×MIC): significantly reduced
catheter biofilm eradication ([5]; CFS 992 (JMI 5381), 10×MIC, 1×MIC, and 0.1×MIC): eradicated and fully dispersed
MIC 50% (Acinetobacter baumannii): >512 µg/mL
MIC 90% (Acinetobacter baumannii): >512 µg/mL
MIC Range (Acinetobacter baumannii): >512 µg/mL
MIC 50% (Escherichia coli): >512 µg/mL
MIC 90% (Escherichia coli): >512 µg/mL
MIC Range (Escherichia coli): >512 µg/mL
CF-301 MIC (Lactobacillus spp.): >512 µg/mL
CF-301 MIC (Lactococcus spp.): >512 µg/mL
